In the domain aggregation screens of Martell et al. (2025):

Assay: soluble fraction after stress (log2 fold change); higher = more stays soluble; pooled small domains, quantitative proteomics
Conditions: stress: pH 4
Summary of the method: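 After pH 4 stress, pooled custom libraries of small protein domains were quantified with high-throughput quantitative proteomics. Aggregation propensity is taken from the fold change in each domain's soluble amount following the acid stress. The scale is log2, where higher values mean more stayed soluble.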

Sequence | soluble fraction (log2)
HMTVSLLQTRQRLQALADLGHYKGDLGAAWGPDAIEALKKAQATLGVTVDGKWGPQTEDAIQVALKVQ | -0.0459
HMYSKVSFTVSVGMTSERVSASLKALGIIDDSAKFNRYLVSNGYSTRIKVGTVELQAGQSYAEIASKLV | 0.151
HMGPTLSPAEKRVFEVIPYDAILQDMVIRAAELPPGEVLAALTTLELKGLIKRLPGNLVMRRAR | -0.267
HMFQLSNEAKQQVLGELKRYESKQSAVLPALYIGQKDNKGHITPEVIRELSKVMDIPESQINEVFTFYTM | -0.402
HMSQTDQALRHLIREAWATLPQRQQQAVELAYYEGLPDTEIAARLNQPVEEVKTSIVLGMAHLREALHSY | -0.198
HMIYSKSDLELFGIKKIDVMEENILMLILSEYELDQTPKNILIDEAVRLSKKFGADNAYKFVNATLDTLL | -1.51
HMDTHRLNYSDFVAEVQAQRVSKVVIDGYTIVGQRTNGETFETVRPALQDPKLVDDLLQNNVIIEGKQPE | -0.143
HMDTDWDVSGVTPDQYRLLFSVLGGLAGVKDVGLNPDGLRIIHTPEALPSIEKAFQANGLKLKRNVD | -0.899
HMFPDLTGDELRIVDLLNTANDLQVNIITAKTNLPISRVTSLLFQLEMKGVVKPLAGGMYHLLG | -0.117
HMDTFSVAIGTKTPDGSSVGEVKTISRDELLLLEDEVAEDPTKEIIFTGGTKDSAQAALDGWIDYNTNLAS | -0.716
HMLPDHAPITMRQLAMLHVAKNKLDLTDEDYRSLLLLYGGVESSKQLNQEGLRRVLDRFKELGFEP | -0.258
HMEIHQVEFGGKVISFVLERKPVKNVNLHIKPDMTVMVSANEKVPLDFILGFVKQKAAWILKNIQFFEDV | -1.08
HMGSPKLVIKNGQVDYQVLKKEKLDLLELTSLLRGQNTFSIREIEYAIIEPNGVITVIKKPEYQSVVKGDL | -1
HMPLDYQELRNISPQAARQAILQILKANKGNVSQTARMLGITRKTVYKAMAKREAGNLDDGSRAPK | 0.265
HMFTEEEMTKLRHELILAGIRLSRELGLQRMSVEKITSAVGIAKGSFYIFFDSKEDFILEIADHANRE | -0.828
HMRTYDPQAVELNNKALELINQGRLDSALLVYDQSIKTDKTYYFPHIGKSIIYMRKKDWNKAFEETQQAIK | 0.0261
HMSAEDYLERIHELIESKGTAHVADIAQSLGVGKPSVTSMVQKLADEGYLNYEKYRSLTLTDSGRSIA | 0.0599
HMNTETAVTKAIDQIQVMMDLRNRSVSFTRDQETGTDIIKVIDDNTGDTIRQMPSEELLTFMKNLTQ | -0.332
HMDKPIVFLEDTKAHKSSDLQSPVYMTVPKGTIAFVIAEKGDWSQVYAGRVLDRNLASQWVRRGFS | 0.191
HMSSWAEGLTERERHTLMWITKGLSNKLIARELGISDSTVKVYVKNLLRKLNVNSRLELAAWVHTHPL | -0.246
HMKLFGTPGSPFARKVRIVLEEKRIPHEYIIERGSAPGSRVPQYNPLGKVPTLVLDDGRGLYDSPVIVEYL | -0.108
HMFSVVDKITLQEELKKLSKKEQLLIQLRYYDELNQEEIAKIFHVSQVQISRMEKKIIEKLKKQF | 0.273
HMNKSGVVLIRVTVDASGRVTSAAYEPKGSTTSDVELVAEARKAALRTRFTESRTVIEGGVITYIFKL | -0.0968
HMFSMKDFGQRLRQLRKERGLTQGDLARLAKIDIMQVSRYERGLGLPSLETAIALARVLETSTDLLFLG | -0.0792
HMRSSAATMFGRIALKNKLVDEATLKKVMSELPAGADLGAVLVKQGLISEQHAEAIQKKITAHMKSAP | 0.0511

Sequence | soluble fraction (log2)
HMYGVAEFDEKGNVLSIEEKPVQPKSNYAVVGLYFYPNKVVGVASGIKPSARGELEITTVNQTFLRDEELK | 0.0152
HMQDGVNLENIEQKLSTLGVGKAQYFLQNVGGNKFNAYMALNTDGVEGYQKGSDTLIEIKNVE | 0.0934
HMEVKSGFVHLTGAVKSPGVYPISIGMRLFEVIALAGGFTAKADRESVNLARTVTDGEQIIVSGSG | -0.778
HMKVSVPDIMDNSSLRQAEAKLRALGFRVTEPEYISGEKDWVYSVTYKGRTLNAGDKVPHEALLTLHVGNG | ≥ 0.43
HMQQELDAFKLLITVSGVGPKAAMAVLSVLPPDRLSIAVSSGDVKSIQSAQGVGKKTAERIVLELKDKM | -0.976
HMSVEVADITRAYYEGVGFEWWIRSVRLDPNELIVDNDDEGKLYRVPFEINGEEVTFGDPVEVKIRYE | -0.71
HMTKDEFLTTLRTLIQDMPPEDRRDVMNYYTEYFEDAGPEREQEVLRQLGSPEQVAREVLGG | -0.459
HMLKIVRSREEVESRLYTIYGNVKGRRLYNFYLSLIIDGLDIVKARTSKNVYYTNIRNLKNAGIDFSQKIN | -0.0641
HMNDTSLIIDNLMLKLGNNIKNFSEIYSLLRKNLAEYGEEFIKSKVDYVLKNFNDNIEENLKKLLTE | -0.601
HMVNTVEVQGNTIYSAEEIRSASGIQKGDNLFTLNKEAAAGSIKASLPYVETVSIIRFLPDKIVIEVKE | -0.977
HMIMMTLGEKIRSIRKAKGMTQQELAEKLNTTKQTIGKYEKGIVTNLPLFRINELARALSTTPAYLTGW | ≥ 0.43
HMLEPEVLDLIGQVKSVHHFSVTQSHQLEKLVRHAHTLGFEIAELKSLLASSPNAKSLLSSLDQKLEPLRM | 0.0896
HMIDLPEAFIQQLKEAVDVGDVTGLRELLGQLRRRYPQQSALSDEAERLLREFDFERLAQLFEGLD | -1.54
HMSFMFEISVIRSQYNMQDPESKTGFYNAIAKKLLEFPEKLERDNYTEAVAREYMIPETDLKNLVNSMGG | -1.66
HMPHITDAEWEVMRVVWANHHVTSKEVISILEDKMNWKATTIKTLLGRLVEKGALSTEQDGKKFIYTAR | -0.622
HMVVDEQRIQTLVSAAEQNSSDPVPRVTLGNLYFDAEQFEEAVKWYEQALALDPRNVNVSTDLGVGYYY | -0.451
HMEEYTVEFVKHKVKRKQTLYTISKLYNVSIDDIIKYNSQIEGFNLSRRMELNIPVKKTLIVKNE | -0.823
HMNPLDGTSVHPESYEAAEKLLKKQGFSLEDISGGKLTGLSLTIKDYARLAKELEIGEITLRDIVKELEK | -0.747
HMHRGTPASIIAAAKQYLTGGQTVELYEREGGPWTFRLRTYLSETPYPEKVRASVEALKPAGVVFLYELQS | -0.112
HMHVSLSGKIHSELRKLILNGELKAGERLPSEPDLAHELGVSRNSLREAIGLLQREGLLLKKHGIGTFVTD | 0.183
HMFDMLGDQIKKYRKEKKMSQEELAIPLNVVRQTVSKWENNLSVPDAELLIRLAEVLEISVAELLGT | -0.76
HMRRKNQVQSSYQKRENGTYTVRFFLSDDMGSIMDLQLMATREDMARALRERFLKDPEKIYGQIMQMLLR | 0.241
HMVIVMRKDADAASIEKVVSEVKSRGFMPHVSEGESRTLIGAIGPAPTEELREHFAGLAGVETVVRITK | -0.0319
HMDYPFQYFNYSHLRILGVPAQLIKAVRKAPTLDAIEQLSGLSEKTKLWLLELATEPKLEDVLFDPGR | -0.515
HMYQFFVDPGQIQGKRVTITGSDVNHIKNVLRMRIGEEIAVSNGKDGLEYRFGIDEILEDEVIGTLRFVKE | -1.87

Sequence | soluble fraction (log2)
HMLHQSLVVNAASGRVTVSLDIVPDEDNPYAVLRATDDSDEPLAQVRVAPSFKLNRASALAWIESQFARP | -0.128
HMLDGFEVGMTVMKKSGTEIGFTGWPSFADKDELPIIERIDTSDSTLLLKFKDMSWWIKASLVEPS | -0.396
HMLSDEDMMELAIIENLQRENLNPIEEARAYESLIDKGFTHTEIADKMGKSRPYISNSIRLLSL | -1.38
HMRKSLGEIVFDRMERAIKSGAYSPDERLPTELDLAAEFEVSRPVIRDALKRLRERGLIYSRQGAGSFVRA | -0.25
HMPQVALAIDEMKRELASPDIVKTLLATTFKGLSEVNMRQAMLDGMIQGHTIADFFKKDVYAIPFGSGYSL | -0.0951
HMAPQVKIPNLVDVSQRQAEAILNSYGLKVGHLIYKPDLAKDAVLGFMFNGRSLKAGDELAKGSSIDLILG | 0.192
HMKTGHLPVTVIIDGRIISDNLYKTGLSNNWLADQLRKNSIKSSEDVFFAYLNPERKFIYQLRSNS | -0.098
HMQPDYRVLYSNFSDKDGGAIVAALEKMNVPYKFSEGGSAILVPAGQVHQARLKLAADGLPK | 0.205
HMTMTIEITVNGKTKTLVAELSLADLLRDLGMTKGRIAVELNGHIVPRSQFSSKTISNLDSIEIVQ | 0.138
HMKRLPMRKIRDVLRLSADGLSTRKIGVSLTIGRTTVQAYLDRAAEVDLSWPLPPEMSDTDLERLIYPR | -0.119
HMESGSSKINQDILETFTRGKKSLSISDISRLSGHHRHTVARYLDNLVSSGKLEMRQHGQKKKYYLSDIQP | 0.0709
HMVEIGENIKKLRKAKRMTQKEVANQLNVTPQTISKWERNISYPDLDMLVKLSQLFHISTDALL | ≥ 0.43
HMGENTIFSGVLGEGRLDSALAHALPQFSRARIQGLIAEDAVLIAGKATNDAASKKFAGQSFELSVPAPRP | 0.0263
HMVETDQESSLIQAIYKYFEITGDNTFFDEKVGEKTVADRMEWAMDYLIQNRFSEEYGLIWGA | -0.517
HMKASTRELLDFVLSQRGVSTASVAKALGISVQNASTRLKKLSNEGLIIRSEASSLTGGIEFLYS | 0.0289
HMENMETSDIVARYSNMPGGIIEAFHEIVDRHGFLSQEAIIEAARGFGISVAEAYGVATFYSMFS | -0.42
HMDDFNLSPREKDVLGHLVKGNSYKMIADELQIGYDTVHSHIKKIYKKLHVNSMSEAVAKALKNKL | -0.26
HMIAVLEEGSRFRAINDISGKPFGPEMIIKNGQVIAAGKKILTKPKKLIGKKEGTKFNISGKEYVIKDI | -0.834
HMGVGVPVTLLLEKLGEDTLSAQQIMERLGLKSRASFRKVYLVPALEQKLIEMEFPDKPNSSKQRYRR | -0.00401
HMLLTPLEETRLVIEEIVIPQKLTIDLLPRSSAIRKLQHELITHYQLRGTSVGNEPNRRLRIYP | -0.633
HMELTVPDFTNMSLEDAINLAEKRDVRLEVTDSVFVKRLGRGFIYSQNPVAGSKVKKGRRILITINAIN | 0.113
HMSKLQETEIPVALEVEKIPGLSNELKQKLLKIKPQTIGQASRISGITPAAISILMIYIKKNESISAVK | -0.399
HMVDPAEASKRAREYLDALPADDLKDVIRQFSATLAEGSVVLGYFQRSGLKSKVVKTALEQFVASTILSK | -0.268
HMLIGLNETESLVLDALIANPMRIDQVSAMLKKDVATTLKFLGGLSVRGLVETLFGGRFAPTKIALHARS | -0.247
HMQLPIGDVKLSVEHLSSGTALQDISFEVHRGEIFGFLGLVGAGRSETAETIFGLREKTDGKISIDGTVL | 0.117
